Data reported in patent US20140073518A1.
Substitutions are numbered along the chain they refer to. Numbers in names are those of the source. Like-named read-outs stand apart in the source and are kept apart here. Each block holds one binder with its values, some of them ahead of it. Ends that are not written are not given here.

What was measured:
[1] = target: integrins on PC3 cells (adhesion to vitronectin); test: cell-based or functional assay
[2] = target: human umbilical vein endothelial cells (HUVECs), which express medium levels of the αvβ3, αvβ5 integrins, the Met receptor, and a high level of the α5β1 integrin; test: HUVEC cell binding assay
[3] = target: integrins on PC3 cells (adhesion to vitronectin)
[4] = target: integrins on PC3 cells (adhesion to vitronectin); test: cell-based or functional assay; remark: listed apart in the source

B1: AgRP mutant 7A (designed binder)
chain: GCVRLHESCLGQQVPCCDPAATCYCSGRGDNDLVCYCR
modifications: ends and bridges not checked; also: four disulfide bonds, pairings not given here
- Half-maximal inhibitor concentration, inhibition of PC3 cell adhesion to human vitronectin [1]: 20 to 40 nM

B2: AgRP7A-Aras4 fusion protein (soluble, FLAG and His tagged) (designed binder)
chain: DYKDDDDKPRGCVRLHESCLGQQVPCCDPAATCYCSGRGDNDLVCYCRYAEGQGKRRNTIHEFKKSAKTTLIKIDPALRIKTEKANTADQCANRCTRSKGLPFTCKAFVFDKARKRCLWFPFNSMSSGVKKEFGHEFDLYENKAYIRDCIIGRGRNYRGTVSITKSGIKCQPWSAMIPHEHSFLPSSYRGEDLRENYCRNPRGEEGGPWCYTSDPEVRYEVCDIPQCSEVETRHHHHHH
- Half-maximal inhibitor concentration, inhibition of PC3 cell adhesion to human vitronectin [1]: 20 to 40 nM

B3: AgRp7A-M2.2(D127A) fusion protein (designed binder)
chain: B2 chain with G54R, R79K, A85V, S98N, A144D, D148A, R153N, N156S, A175S, Y211F
- Kd [2]: 9.4 nM

B4: EETI2.5F-Aras4 fusion protein (designed binder)
chain: DYKDDDDKPRGCPRPRGDNPPLTCSQDSDCLAGCVCGPNGFCGYAEGQGKRRNTIHEFKKSAKTTLIKIDPALRIKTEKANTADQCANRCTRSKGLPFTCKAFVFDKARKRCLWFPFNSMSSGVKKEFGHEFDLYENKAYIRDCIIGRGRNYRGTVSITKSGIKCQPWSAMIPHEHSFLPSSYRGEDLRENYCRNPRGEEGGPWCYTSDPEVRYEVCDIPQCSEVETRHHHHHH
- Half-maximal inhibitor concentration, inhibition of PC3 cell adhesion to human vitronectin [1]: 20 to 40 nM

B5: EETI2.5F-M2.2(D127A) fusion protein (designed binder)
chain: B4 chain with G49R, R74K, A80V, S93N, A139D, D143A, R148N, N151S, A170S, Y206F
- Kd [2]: 4.7 nM

Next, values leading:

- IC50 (read off the curve), PC3 cell adhesion to vitronectin [3]: 10 nM
B6: knottin 2.5F-Fc (EETI 2.5F fused to the Fc domain of mouse Ig2a) (Fc fusion)
chain: GCPRPRGDNPPLTCKQDSDCLAGCVCGPNGFCGEPRGPTIKPCPPCKCPAPNLLGGPSVFIFPPKIKDVLMISLSPIVTCVVVDVSEDDPDVQISWFVNNVEVHTAQTQTHREDYNSTLRVVSALPIQHQDWMSGKEFKCKVNNKDLPAPIERTISKPKGSVRAPQVYVLPPPEEEMTKKQVTLTCMVTDFMPEDIYVEWTNNGKTELNYKNTEPVLDSDGSYFMYSKLRVEKKNWVERNSYSCSVVHEGLHNHHTTKSFSRTPGK

- IC50 (read off the curve), PC3 cell adhesion to vitronectin [3]: 10 nM
B7: knottin 2.5D-Fc (EETI 2.5D fused to the Fc domain of mouse Ig2a) (Fc fusion)
chain: B6 chain with R4Q, P5G, N9W, P10A, L12T, T13S, L21R

- Half-maximal inhibitor concentration, inhibition of PC3 cell adhesion to human vitronectin [4]: 20 to 40 nM
Binder: GCPRPRGDNPPLTCKQDSDCLAGCVCGPNGFCG (designed binder) [EETI-II mutant 2.5F]
